This series in a line: yeast display, Sf9 membrane polyspecificity reagent, FACS + sequencing; frameworks hold sequencing errors. In outline:
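Polyreactivity labels are assigned by the sorting gate from which each nanobody was recovered. The gates were low and high (top ~1%), set on anti-HA fluorescence for expression and streptavidin fluorescence for reagent binding. Before sorting, galactose-induced (36–48 hours) yeast display cells were stained for 1 hour at 4 °C with 10% biotinylated, detergent-solubilized Sf9 membrane reagent.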
Consider “QVQLVESGGGLVQAGGSLRLSCAASGSTLLTYTMGWYRQAPGKESELVASITTSGGSTYYADSVKGRFTISRDNAKNTVYLQMNSLKPEDTAVYYWGQGTQVTVSS”, for which the “polyreactivity (PSR sort gate)” value is reported as “low polyreactivity”.

With “QVQLVESGGGLVQAGGSLRLSCAASGSTLNLYAMGWFRQAPGKEMELVAAIRSHGVSTYYADSVKGRFTISRDNAKNTVYLQMNRLKPEYTAFYYCAGVYIPGGRYTYFPYKRYDYWGQGTQVTVSS”, the “polyreactivity (PSR sort gate)” value was “high polyreactivity”.

With “QVQLVESGGGLVQAGGSLRLSCAASGSTLNSYVMGWYRQAPGKERELVATIRSGSSTNYADSVNGRFTISRDNAKNTVYLQMNSLKPEDTAVYYCAADAYSLCYDSWGQGTQVTVSS”, the “polyreactivity (PSR sort gate)” value is reported as “low polyreactivity”.

For the sequence “QVQLVESGGGLVQAGGSLRLSCAASGSTLPPYVMGRYRQAPGKERELVAAISSSSGSTYYADSVKGRFTISRDNAKNTVYLQRNSLKPEDTAVYYCAAVTGWAREEEYWGQGTQVTVSS”, the “polyreactivity (PSR sort gate)” value is reported as “low polyreactivity”.

On to “QVQLVESGGGLVQAGGSLRLSCAASGSTLPYYAMGWYRQAPGKERELVAAITSSGGDTYYADSVKGRFTISRDNAKNTVYLQMNSLKPEDTAVYYCAKSYSARSTVRKLFYFAYDYWGQGTQVTVSS”, for which the “polyreactivity (PSR sort gate)” value is given as “low polyreactivity”.

As to “QVQLVESGGGLVQAGGSLRLSCAASGSTLQYYDMGWYRQAPGKERELVAAITWSTGTTYYADSVKGRFTISRDNAKNTVYLQMNSLKPEDTAVYYCAVDSYYRATYTNRYDYWGQGTQVTVSS”, the “polyreactivity (PSR sort gate)” value is “low polyreactivity”.

In the case of “QVQLVESGGGLVQAGGSLRLSCAASGSTLRGYALGWYRQAPGKERELVAAISKNGGSTYYADSVKGRFTISRDNAKNTVYLQMNSLNPEDTAVYYCAAYKAVPHYYYWGQGTQVTVSS”, the “polyreactivity (PSR sort gate)” value is on record as “high polyreactivity”.

As for “QVQLVESGGGLVQAGGSLRLSCAASGSTLRPYGMGWYRQAPGKERELVATIRSSSGRTYYADSVKGRFTISRDNAKTTVYLQMTSLKPEDTAVYYCARRYITNIKYDYWGQGTQVTVSS”, the “polyreactivity (PSR sort gate)” value is “high polyreactivity”.

As for “QVQLVESGGGLVQAGGSLRLSCAASGSTLRRNAMGWYRQAPGTERELVAAITGSRGSTFYADSVKGRFTISRDNAKNTVYLQMNSLKPEDTAVYYCAVYKWSTRVSQYRYDYWGQGTQVTVSS”, the “polyreactivity (PSR sort gate)” value is “high polyreactivity”.

For “QVQLVESGGGLVQAGGSLRLSCAASGSTLRRYAMGWDRQAPGKERELVAAISGSGDSTYYADSVKGRFTISRDNAKNTVYLQMNSLKPEDTAVYYCNAVYAFNGYDYWGQGTQVTVSS”, the “polyreactivity (PSR sort gate)” value is “low polyreactivity”.

As to “QVQLVESGGGLVQAGGSLRLSCAASGSTLRYYGMGWYRQAPGKEREFVATLSWGGGSTYYADSVKGRFTISRDNAKNTVYLQINSLKPEDTAVYYCAASWNGGLFQTKYGYWGQGTQVTVSS”, the “polyreactivity (PSR sort gate)” value is listed as “high polyreactivity”.

In the case of “QVQLVESGGGLVQAGGSLRLSCAASGSTLSANAMGWYRQAPGKERELVAAISWNGGSTYYADSVKGRFTISRDNAKNTVYLQMNSLKPEDTAVYYCAAEYIVTYEYWYFGYDYWGQGTQVTVSS”, the “polyreactivity (PSR sort gate)” value is “low polyreactivity”.

In the case of “QVQLVESGGGLVQAGGSLRLSCAASGSTLSFNAMGWYRQAPGKERELVAAITSSGGSTYYADSVKGRFTISRDNAKNTVYLQMKSLKPEDTAVYYCAADRYTVRMDYWGQGTQVTVSS”, the “polyreactivity (PSR sort gate)” value is “high polyreactivity”.

For the sequence “QVQLVESGGGLVQAGGSLRLSCAASGSTLSNNAMGWYRQAPGKERELVAAINDSAGSTYYADSVKGRFTISRDNAKNTVYLQMNSLKPEDTAVYYCAAKNYGRSFYYGYDYWEQGTQVTVSS”, the “polyreactivity (PSR sort gate)” value is “low polyreactivity”.

Consider “QVQLVESGGGLVQAGGSLRLSCAASGSTLSVYAKGSYIQAPGKEREFVASISSSVGRTFYADSVKGRFTISRDNANNTVYLQMNSLNQEDTAVYYCAARRRTFYASSSAINGYDYWRQGTQVTVSS”, for which the “polyreactivity (PSR sort gate)” value was “high polyreactivity”.

On to “QVQLVESGGGLVQAGGSLRLSCAASGSTLTSNAIGWYRQAPGKERELVAAIRSGGSTNYADSVKGRFTISRDNAKNTVYLQMYSLNPEDTAVYYCNAEEKVTYSASYYWVYDAMDHWGQGTQVTVSS”, for which the “polyreactivity (PSR sort gate)” value is “low polyreactivity”.

As to “QVQLVESGGGLVQAGGSLRLSCAASGSTLVFYAMGWYRQAPGKERELVAAITRSGGSTYYADSVKGRFTISRDNEKNTVYLQMNSLKPEDTAFYYCAADERYIYERDSWGQGTQVTVSS”, the “polyreactivity (PSR sort gate)” value was “low polyreactivity”.

“QVQLVESGGGLVQAGGSLRLSCAASGSTLVLNALGWYRQAPGKERELVAAITISGDTTYYADSVKGRFTISRDNAKNTVYLQMNSLKPEDTAVYYCAAVVSTVDGMEYWGQGTQVTVSS”: the “polyreactivity (PSR sort gate)” value is recorded as “low polyreactivity”.

Regarding “QVQLVESGGGLVQAGGSLRLSCAASGSTLVYNDMGWYRQAPGKEREFVAAIRSNDGSTYYADSVKGRFTISRDNAKNTVYLQMNSLKPEDTAVYYCAARYPARGTLYYWGQGTQVTVSS”, the “polyreactivity (PSR sort gate)” value is listed as “low polyreactivity”.

Regarding “QVQLVESGGGLVQAGGSLRLSCAASGSTLWGYAMGWYRPAPGKERELVAAITSSGGITYYADSVKGRFTISRDNAKNTVYLQMNSLKPEDTAVYYCAVDYYVVGWTYLYYYRGQGTQVTVSS”, the “polyreactivity (PSR sort gate)” value is listed as “low polyreactivity”.

For the sequence “QVQLVESGGGLVQAGGSLRLSCAASGSTLWGYVMGWYRQAPGKERELVAVISKSGGSTYYADSVKGRFTISRDNAKNTVYLQMNSLKPEDTAVYYCATRGPYRSDWGQGTQVTVSS”, the “polyreactivity (PSR sort gate)” value is recorded as “high polyreactivity”.

In the case of “QVQLVESGGGLVQAGGSLRLSCAASGSTLWRSAMGWYRQAPGKERELVAGISRGGGSTYYADSVKGRFTISRDNAKNTVYLQMHSLKPEDTAVYYCATPVYQVRGAFDYWGQGTQVTVSS”, the “polyreactivity (PSR sort gate)” value was “low polyreactivity”.

Turning to “QVQLVESGGGLVQAGGSLRLSCAASGSTLWYNAMGWYRQAPGKERELVASITSDGGSSTYADSVKGRFTISRDNAKNTVYLQMNSQKPEDTAVYYCAADWPIVQYDYWGQGTQVTVSS”, the “polyreactivity (PSR sort gate)” value was “low polyreactivity”.

Turning to “QVQLVESGGGLVQAGGSLRLSCAASGSTLYFYAMGWYRQAPGKERELVADITRSGGSTYYADSVKGRFTISRDNAKNTVYLQMNSLKPEDTAVYYCNADDWSTYWYGYPGYDYWGQGTQVTVSS”, the “polyreactivity (PSR sort gate)” value is recorded as “high polyreactivity”.

On to “QVQLVESGGGLVQAGGSLRLSCAASGSTLYGYAMGWYRQAPGNERELVAAISVSGGRTYYADSVKGRFTISRDNAKNTVYLQMNSLKPEDTAVYYCAAYGTTRMDYWGQGTQVTVSS”, for which the “polyreactivity (PSR sort gate)” value was “high polyreactivity”.

With “QVQLVESGGGLVQAGGSLRLSCAASGSTLYPNAMGWYRHAPGKERELVAAISSGSSTYADSVKGRFTISRDNAKNTVYLQMNSLKPEDTAVYYCNADSRIHYDYWGQGTQLTVSS”, the “polyreactivity (PSR sort gate)” value is recorded as “low polyreactivity”.

As to “QVQLVESGGGLVQAGGSLRLSCAASGSTLYPNAMGWYRQAPGKERELVAAISSGSSTYADSVKGRFTISRDNAKNTVYLQMNRLKPEDTAVYYCNADSRIHYDYWGQGTQVTVSS”, the “polyreactivity (PSR sort gate)” value is reported as “low polyreactivity”.

On to “QVQLVESGGGLVQAGGSLRLSCAASGSTLYQYTMGWYRQAPGKERELVAGISRRGGSTYYADSVKGRFTISRDNAKNTVYLQMNSLKPEDTAVYYCAKRPPYIAWYGYNGDYWGQGTQVTVSS”, for which the “polyreactivity (PSR sort gate)” value was “high polyreactivity”.

Take “QVQLVESGGGLVQAGGSLRLSCAASGSTLYRYAMGWYRQAAGKERELVATITRSGGSTYYADSVKGRFTISRDNAKNTVYLQMNSLKPEDTAVYSCAAYRKVGGFSRGDYWGQGTQVTVSS”: the “polyreactivity (PSR sort gate)” value is given as “high polyreactivity”.

Consider “QVQLVESGGGLVQAGGSLRLSCAASGSTLYSYAMGWYRQAPGKERELVAAISIGDSTNYADSVKGRFTISRDNAKNTVYLQMNSLKPVDTAVYYCAADWDESYSYRRYRHYDYWGQGTQVSVSS”, for which the “polyreactivity (PSR sort gate)” value is on record as “low polyreactivity”.

Regarding “QVQLVESGGGLVQAGGSLRLSCAASGSTLYTYAMGWYRPAPGKERELVAAIRLSGGRTYYADSVKGRFTISRDNAKNTVYLQMNSLKPEDTAVYYCAVDWSYSRYDYWGQGTQVTVSS”, the “polyreactivity (PSR sort gate)” value was “high polyreactivity”.

Turning to “QVQLVESGGGLVQAGGSLRLSCAASGSTLYTYAMRWYRQAPGKERELVAAIRLSGGRTYYADSVKGRFTISRDNAKNTVYLQMYSLKPEDTAVYDFAVDWSYSRYDYWGQGTQVTVSS”, the “polyreactivity (PSR sort gate)” value is listed as “high polyreactivity”.

Turning to “QVQLVESGGGLVQAGGSLRLSCAASGSTLYVNAMGLYRQAPGKERELVAAISWRGDRTYYADSVKGRFTISRDNAKNNVYLQMNSLKPEDTAVYYCAKDYWWKGTTLYYNLDYWGQGTQVTVSS”, the “polyreactivity (PSR sort gate)” value was “high polyreactivity”.

With “QVQLVESGGGLVQAGGSLRLSCAASGSTLYWYAMGWYRQAPGKERELVARITVSGGSTSYADSVKGRFTISRYNAKNTVYLQMNSLKPEDTAVYYCAARRYWTGYYYWGQGTQVTVSS”, the “polyreactivity (PSR sort gate)” value was “high polyreactivity”.

In the case of “QVQLVESGGGLVQAGGSLRLSCAASGSTLYYNAMGWYRQAPGKERELVAAISWSGGSTYYADSVKGRFTISRDNAKNTVYLQMNSLKPEDTAVYYCAADQSTVLDVGSWGQGTQVTVSS”, the “polyreactivity (PSR sort gate)” value is reported as “low polyreactivity”.

For the sequence “QVQLVESGGGLVQAGGSLRLSCAASGSTLYYNAMGWYRQAPGKESELVAAISWSGGSTYYADSVKGRFTISRDNAKNTVYLQMNSLKPEDTAVYYCAADQSTVLDVGSWGQGTQVTVSS”, the “polyreactivity (PSR sort gate)” value is “low polyreactivity”.

Regarding “QVQLVESGGGLVQAGGSLRLSCAASGSTRGYAMGWYRQAPGKEREMVAAIRSSGSTNYADSVKGRFTISRDNAKNTVYLQMNSLKPEDTAVYFCATDGHYLYSWYKYDYWGQGTQVTVSS”, the “polyreactivity (PSR sort gate)” value is “low polyreactivity”.

“QVQLVESGGGLVQAGGSLRLSCAASGSTRYYAMGWYRHAPGKERELVASITTIGGSTSYADSVKGRFTISRDNAKNTVYLQMNSLKPEDTAVYYCATRSLVYSARAAGLIQFDHWGQGTQVNVSS”: the “polyreactivity (PSR sort gate)” value is given as “low polyreactivity”.

In the case of “QVQLVESGGGLVQAGGSLRLSCAASGSTSDINAMGWYRQAPGKERELVAVITFSGGSTNYADSVKGRFTISRDNAKNTVYLQMHSLKPEDTAVYYCNADTLTTTRRFNPYDYWGQGTQVTVSS”, the “polyreactivity (PSR sort gate)” value is reported as “low polyreactivity”.

In the case of “QVQLVESGGGLVQAGGSLRLSCAASGSTSDINAMGWYRQARGKEWQLVAVITDSSNTDYADSVKGRFTISRDNAKNTVYLEMNSLKPEETAVYYCAADRDEPDPYDYWGPGTQVTVSS”, the “polyreactivity (PSR sort gate)” value is “low polyreactivity”.

For the sequence “QVQLVESGGGLVQAGGSLRLSCAASGSTSGPYAMGWYRTAPGKERELVATISWIGDRTYYADSVKGRFTISRDNAKNTIYLQMNSLKPEDTAVYYCNDDYRGYANLEGDYWGQGTQVTVSS”, the “polyreactivity (PSR sort gate)” value is given as “low polyreactivity”.
